From IntAct's records for PubMed 19732724

B1: Tensin-3 (Homo sapiens), Q68CZ2 (parent)
chain: MEEGHGLDLTYITERIIAVSFPAGCSEESYLHNLQEVTRMLKSKHGDNYLVLNLSEKRYDLTKLNPKIMDVGWPELHAPPLDKMCTICKAQESWLNSNLQHVVVIHCRGGKGRIGVVISSYMHFTNVSASADQALDRFAMKKFYDDKVSALMQPSQKRYVQFLSGLLSGSVKMNASPLFLHFVILHGTPNFDTGGVCRPFLKLYQAMQPVYTSGIYNVGPENPSRICIVIEPAQLLKGDVMVKCYHKKYRSATRDVIFRLQFHTGAVQGYGLVFGKEDLDNASKDDRFPDYGKVELVFSATPEKIQGSEHLYNDHGVIVDYNTTDPLIRWDSYENLSADGEVLHTQGPVDGSLYAKVRKKSSSDPGIPGGPQAIPATNSPDHSDHTLSVSSDSGHSTASARTDKTEERLAPGTRRGLSAQEKAELDQLLSGFGLEDPGSSLKEMTDARSKYSGTRHVVPAQVHVNGDAALKDRETDILDDEMPHHDLHSVDSLGTLSSSEGPQSAHLGPFTCHKSSQNSLLSDGFGSNVGEDPQGTLVPDLGLGMDGPYERERTFGSREPKQPQPLLRKPSVSAQMQAYGQSSYSTQTWVRQQQMVVAHQYSFAPDGEARLVSRCPADNPGLVQAQPRVPLTPTRGTSSRVAVQRGVGSGPHPPDTQQPSPSKAFKPRFPGDQVVNGAGPELSTGPSPGSPTLDIDQSIEQLNRLILELDPTFEPIPTHMNALGSQANGSVSPDSVGGGLRASSRLPDTGEGPSRATGRQGSSAEQPLGGRLRKLSLGQYDNDAGGQLPFSKCAWGKAGVDYAPNLPPFPSPADVKETMTPGYPQDLDIIDGRILSSKESMCSTPAFPVSPETPYVKTALRHPPFSPPEPPLSSPASQHKGGREPRSCPETLTHAVGMSESPIGPKSTMLRADASSTPSFQQAFASSCTISSNGPGQRRESSSSAERQWVESSPKPMVSLLGSGRPTGSPLSAEFSGTRKDSPVLSCFPPSELQAPFHSHELSLAEPPDSLAPPSSQAFLGFGTAPVGSGLPPEEDLGALLANSHGASPTPSIPLTATGAADNGFLSHNFLTVAPGHSSHHSPGLQGQGVTLPGQPPLPEKKRASEGDRSLGSVSPSSSGFSSPHSGSTISIPFPNVLPDFSKASEAASPLPDSPGDKLVIVKFVQDTSKFWYKADISREQAIAMLKDKEPGSFIVRDSHSFRGAYGLAMKVATPPPSVLQLNKKAGDLANELVRHFLIECTPKGVRLKGCSNEPYFGSLTALVCQHSITPLALPCKLLIPERDPLEEIAESSPQTAANSAAELLKQGAACNVWYLNSVEMESLTGHQAIQKALSITLVQEPPPVSTVVHFKVSAQGITLTDNQRKLFFRRHYPVNSVIFCALDPQDRKWIKDGPSSKVFGFVARKQGSATDNVCHLFAEHDPEQPASAIVNFVSKVMIGSPKKV
partner: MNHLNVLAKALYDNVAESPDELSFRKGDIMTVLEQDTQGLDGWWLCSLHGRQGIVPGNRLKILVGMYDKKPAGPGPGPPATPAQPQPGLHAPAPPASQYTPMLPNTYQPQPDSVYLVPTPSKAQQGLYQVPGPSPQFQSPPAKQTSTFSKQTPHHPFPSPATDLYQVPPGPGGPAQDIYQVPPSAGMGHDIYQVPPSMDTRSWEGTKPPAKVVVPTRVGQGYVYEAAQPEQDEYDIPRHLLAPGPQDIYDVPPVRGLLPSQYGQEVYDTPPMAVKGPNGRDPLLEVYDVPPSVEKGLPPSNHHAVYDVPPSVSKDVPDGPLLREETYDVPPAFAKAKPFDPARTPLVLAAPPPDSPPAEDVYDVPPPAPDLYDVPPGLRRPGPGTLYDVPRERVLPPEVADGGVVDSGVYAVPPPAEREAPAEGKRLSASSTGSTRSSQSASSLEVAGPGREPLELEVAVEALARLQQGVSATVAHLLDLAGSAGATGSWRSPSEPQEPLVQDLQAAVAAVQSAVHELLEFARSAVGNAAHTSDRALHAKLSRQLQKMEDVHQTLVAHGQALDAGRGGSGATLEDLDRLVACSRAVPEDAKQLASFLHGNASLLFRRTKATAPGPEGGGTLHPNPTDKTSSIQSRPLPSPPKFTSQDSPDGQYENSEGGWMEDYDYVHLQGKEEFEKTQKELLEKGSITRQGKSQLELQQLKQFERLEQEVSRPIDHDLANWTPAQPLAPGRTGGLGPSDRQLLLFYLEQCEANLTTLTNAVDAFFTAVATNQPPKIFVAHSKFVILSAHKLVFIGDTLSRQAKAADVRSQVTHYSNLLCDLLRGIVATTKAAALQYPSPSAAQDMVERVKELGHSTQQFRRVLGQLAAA

Variants of: B1
Conditions: with bcar1_human BCAR1, P56945

Row | Variant | effect of a mutation on the interaction
1 | Y1173F;Y1206F | decreasing interaction
